Test results published in PMC12646661 (The Journal of Clinical Investigation, 2025).

T1: rN2 (A/Hong Kong/1/1968), soluble recombinant neuraminidase (influenza A virus A/Hong Kong/1/1968 …)
T1 chain: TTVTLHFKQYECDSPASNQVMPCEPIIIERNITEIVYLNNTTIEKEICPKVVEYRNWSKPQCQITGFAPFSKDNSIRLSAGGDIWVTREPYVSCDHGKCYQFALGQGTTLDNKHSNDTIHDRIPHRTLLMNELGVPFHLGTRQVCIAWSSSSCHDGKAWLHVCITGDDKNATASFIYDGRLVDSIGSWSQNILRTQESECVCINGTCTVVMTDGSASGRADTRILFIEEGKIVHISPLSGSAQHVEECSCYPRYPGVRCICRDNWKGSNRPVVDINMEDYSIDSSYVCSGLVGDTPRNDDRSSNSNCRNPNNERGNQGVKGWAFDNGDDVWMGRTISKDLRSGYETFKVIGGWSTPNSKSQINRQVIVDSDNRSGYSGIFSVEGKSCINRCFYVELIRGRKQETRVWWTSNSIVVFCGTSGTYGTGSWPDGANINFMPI

B1: r1G01 (recombinant version of the previously described mAb 1G01) (antibody, V domains shown)
VH: EVQLVESGGRALRPGGSLRLSCAASGFKFDDYAMSWVRQVPGKGLEFVSGLNWNGDITAYTDSVKGRFTVSRDNAKNSLYLHINSPKPEDTALYYCARTSSWGDYTRGPEPKITWYFDLWGRGTLVTVSS
VL: DIQLTQSPSFLSASVGDRITITCRASQGIDGYLAWYQQRPGKAPNLLIYAASLLQSGVPSRFSGSGYGTEFTLTISSLQPEDFATYYCQHLDSYPLFTFGPGTKVDIK
B2: rFNI9 (recombinant version of the broadly neutralizing NA antibody FNI9) (antibody, V domains shown)
VH: QVHLVQSGAEVKEPGSSVTVSCKASGGSFNNQAISWVRQAPGQGLEWMGGIFPISGTPTSAQRFQGRVTFTADESTTTVYMDLSSLRSDDTAVYYCARAGSDYFNRDLGWENYYFASWGQGTLVTVSS
VL: EIVMTQSPATLSLSSGERATLSCRASRSVSSNLAWYQQKPGQAPRLLIYDASTRATGFSARFAGSGSGTEFTLTISSLQSEDSAIYYCQQYNNWPPWTFGQGTKVEIK

Molecular target: T1, rN2 (A/Hong Kong/1/1968), soluble …
Test: ELISA
Conditions: both partners purified

| Binder | binding result |
| --- | --- |
| B1 | binds |
| B2 | binds |
